# ± gives the uncertainty stated by the source.
# Assay: self-splicing fitness, log relative to wild type (ln ratio); higher = more splicing; Tetrahymena group I intron in knt gene, E. coli kanamycin selection, DiMSum; sequences stand for … in CUCUCU…GGAGGGAAAAGUUAUCAGGCAUGCACCUGGUAGCUAGUCUUUAAACCAAUAGAUUGCAUCGGUUUAAAAGGCAAGACCGUCAAAUUGCGGGAAAGGGGUCAACAGCCGUUCAGUACCAAGUCUCAGGGGAAACUUUGAGAUGGCCUUGCAAAGGGUAUGGUAAUAAGCUGACGGACAUGGUCCUAACCACGCAGCCAAGUCCUAAGUCAACAGAUCUUCUGUUGAUAUGGAUGCAGUUCACAGACUAAAUGUCGGUCGGGGAAGAUGUAUUCUUCUCAUAAGAUAUAGUCGGACCUCUCCUUAAUGGGAGCUAGCGGAUGAAGUGAUGCAACACUGGAGCCGCUGGGAACUAAUUUGUAUGCGAAAGUAUAUUGAUUAGUUUUGGAGUACUCGUGGUCG
# Procedure, shortened: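 Pooled colonies went to amplicon sequencing on an Illumina HiSeq 2500 after six replicate transformations. The plates were LB agar with 100 μg/mL carbenicillin, 50 μM IPTG and 0.2% rhamnose, with or without 25 μg/mL kanamycin, incubated overnight at 37°C or 30°C. The E. coli BL21(DE3) library had all eight P1ex-region intron nucleotides randomised, the intron placed in the knt kanamycin-resistance gene on pET-22b(+). DiMSum fitness is the error-weighted combination of replicate fold changes, kanamycin against none, normalised to wild type.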
Sequence,self-splicing fitness (ln) (30 °C),self-splicing fitness (ln) (37 °C)
GAUCAGCAAUAUUACGCCGU,-0.933 ± 0.098,-0.477 ± 0.12
GAUCAGCAAUAUUACGCGAA,-1.49 ± 0.086,-0.586 ± 0.09
GAUCAGCAAUAUUACGCGUG,-0.471 ± 0.048,0.0677 ± 0.066
GAUCAGCAAUAUUACGCGUU,-2.22 ± 0.1,-1.21 ± 0.12
GAUCAGCAAUAUUACGGACG,-0.737 ± 0.13,-0.212 ± 0.18
GAUCAGCAAUAUUACGGAUC,-2.99 ± 0.2,-2.49 ± 0.36
GAUCAGCAAUAUUACGGCGU,-0.292 ± 0.086,0.2 ± 0.1
GAUCAGCAAUAUUACGGCUU,-0.164 ± 0.092,-0.596 ± 0.1
GAUCAGCAAUAUUACGGGCC,-0.0569 ± 0.16,-0.311 ± 0.18
GAUCAGCAAUAUUACGGGUG,-0.356 ± 0.081,-0.245 ± 0.094
GAUCAGCAAUAUUACGGUCU,-3.56 ± 0.21,-1.9 ± 0.2
GAUCAGCAAUAUUACGUAAG,-1.58 ± 0.097,-1.13 ± 0.12
GAUCAGCAAUAUUACGUCUC,-0.796 ± 0.1,0.0417 ± 0.13
GAUCAGCAAUAUUACGUGAA,-0.745 ± 0.062,-0.0764 ± 0.076
GAUCAGCAAUAUUACGUGCG,-1.16 ± 0.086,-0.336 ± 0.093
GAUCAGCAAUAUUACGUGUG,-0.908 ± 0.044,-0.101 ± 0.06
GAUCAGCAAUAUUACGUGUU,-1.75 ± 0.06,-1.48 ± 0.09
GAUCAGCAAUAUUACGUUAC,-2.16 ± 0.097,-1.19 ± 0.11
GAUCAGCAAUAUUACGUUUC,-2.26 ± 0.12,-0.791 ± 0.1
GAUGAGCAAUAUUACGAAAC,-3.2 ± 0.26,-2.43 ± 0.24
GAUGAGCAAUAUUACGAACA,-3.07 ± 0.47,-1.54 ± 0.24
GAUGAGCAAUAUUACGACAG,-2.31 ± 0.47,
GAUGAGCAAUAUUACGAGUU,-2.18 ± 0.22,-1.47 ± 0.24
GAUGAGCAAUAUUACGAUAC,-3.7 ± 0.38,-0.654 ± 0.2
GAUGAGCAAUAUUACGAUCU,,-1.86 ± 0.29
GAUGAGCAAUAUUACGCGAU,-3.05 ± 0.34,-1.57 ± 0.21

Sequence,self-splicing fitness (ln) (30 °C),self-splicing fitness (ln) (37 °C)
GAUGAGCAAUAUUACGCGCG,-1.68 ± 0.23,-0.518 ± 0.17
GAUGAGCAAUAUUACGCGGG,-3.55 ± 0.42,-3.59 ± 0.47
GAUGAGCAAUAUUACGCUCC,-3 ± 0.3,
GAUGAGCAAUAUUACGCUUA,-2.21 ± 0.28,-2.33 ± 0.25
GAUGAGCAAUAUUACGGAAA,,-2.2 ± 0.31
GAUGAGCAAUAUUACGGAAC,,0.0424 ± 0.44
GAUGAGCAAUAUUACGGUAG,-2.01 ± 0.14,-2.2 ± 0.21
GAUGAGCAAUAUUACGGUUC,-4.06 ± 0.33,-2.32 ± 0.35
GAUGAGCAAUAUUACGGUUU,-2.06 ± 0.097,-1.04 ± 0.13
GAUGAGCAAUAUUACGUGUG,-2.57 ± 0.14,-1.45 ± 0.12
GAUGAGCAAUAUUACGUUGA,-3.32 ± 0.43,-1.5 ± 0.2
GAUUAGCAAUAUUACGAAAC,-2.38 ± 0.16,-1.61 ± 0.17
GAUUAGCAAUAUUACGAACA,-0.848 ± 0.21,0.129 ± 0.17
GAUUAGCAAUAUUACGACAC,-0.38 ± 0.17,-1.07 ± 0.17
GAUUAGCAAUAUUACGACAU,-0.469 ± 0.014,-0.0848 ± 0.033
GAUUAGCAAUAUUACGACUG,-0.181 ± 0.12,-0.313 ± 0.14
GAUUAGCAAUAUUACGACUU,0.263 ± 0.12,-0.24 ± 0.12
GAUUAGCAAUAUUACGCAUC,-2.32 ± 0.25,
GAUUAGCAAUAUUACGCCAG,-2.17 ± 0.32,-0.806 ± 0.34
GAUUAGCAAUAUUACGCGCA,-0.548 ± 0.12,0.433 ± 0.11
GAUUAGCAAUAUUACGCGCC,-1.37 ± 0.38,-1.2 ± 0.34
GAUUAGCAAUAUUACGCGUU,-2.52 ± 0.31,-1.8 ± 0.34
GAUUAGCAAUAUUACGCUGC,-3.07 ± 0.24,-2.25 ± 0.35
GAUUAGCAAUAUUACGCUUC,-3.55 ± 0.34,-1.88 ± 0.29
GAUUAGCAAUAUUACGGACA,-1.06 ± 0.13,0.179 ± 0.12
GAUUAGCAAUAUUACGGAGG,-2.45 ± 0.18,-1.81 ± 0.17

Sequence,self-splicing fitness (ln) (30 °C),self-splicing fitness (ln) (37 °C)
GAUUAGCAAUAUUACGGAUG,-2.07 ± 0.16,-0.375 ± 0.15
GAUUAGCAAUAUUACGGCUG,-0.996 ± 0.067,-0.513 ± 0.093
GAUUAGCAAUAUUACGGCUU,-0.0112 ± 0.094,-0.0247 ± 0.11
GAUUAGCAAUAUUACGGGCA,-1.13 ± 0.13,-0.685 ± 0.12
GAUUAGCAAUAUUACGGGUG,-1.52 ± 0.097,-0.58 ± 0.12
GAUUAGCAAUAUUACGGGUU,-2.59 ± 0.16,-1.14 ± 0.15
GAUUAGCAAUAUUACGUACA,-1.89 ± 0.24,-0.352 ± 0.15
GAUUAGCAAUAUUACGUAGG,-3.05 ± 0.16,-1.48 ± 0.15
GAUUAGCAAUAUUACGUCAC,-2.91 ± 0.28,-2.2 ± 0.37
GAUUAGCAAUAUUACGUCCC,-0.907 ± 0.17,-0.221 ± 0.17
GAUUAGCAAUAUUACGUCGG,-2.66 ± 0.24,-3.05 ± 0.29
GAUUAGCAAUAUUACGUUCG,-1.94 ± 0.16,-1.44 ± 0.13
GCAAAGCAAUAUUACGAAAU,-2.4 ± 0.12,-1.36 ± 0.11
GCAAAGCAAUAUUACGAACA,-1.89 ± 0.14,-1.73 ± 0.12
GCAAAGCAAUAUUACGACAU,-0.736 ± 0.012,-0.158 ± 0.032
GCAAAGCAAUAUUACGACCC,-1.11 ± 0.073,-0.0707 ± 0.1
GCAAAGCAAUAUUACGACGU,0.0721 ± 0.072,0.116 ± 0.096
GCAAAGCAAUAUUACGACUG,-1.3 ± 0.13,-0.673 ± 0.15
GCAAAGCAAUAUUACGAGUC,-1.41 ± 0.14,-2.6 ± 0.19
GCAAAGCAAUAUUACGCAAC,-3.02 ± 0.15,-1.23 ± 0.12
GCAAAGCAAUAUUACGCCAA,-2.08 ± 0.48,-2.95 ± 0.31
GCAAAGCAAUAUUACGCGGG,-3.11 ± 0.21,-2.41 ± 0.21
GCAAAGCAAUAUUACGCUUC,-4.15 ± 0.33,-2.39 ± 0.33
GCAAAGCAAUAUUACGGCUA,-0.821 ± 0.07,-0.279 ± 0.073
GCAAAGCAAUAUUACGGGAC,-1.82 ± 0.11,-1.66 ± 0.16

# Source: the supplement of paper PMC7877785
